Measurements published in paper PMC3670040, “Structure of Lipid Kinase p110β/p85β Elucidates an Unusual SH2-Domain-Mediated Inhibitory Mechanism” (Molecular Cell, 2011).

Tested on: p110β
Test: Mass spectrometry assay of PIP3 production in vitro, brain lipids
Type: biochemical, mouse
Conditions: 10 nM protein, 100 μM ATP, 1 mg/ml lipid, 60 min; Figure S3A
Protocol: Figure S3, Related to Figures 1 and 2. Lipid Kinase Assays for p110β/p85 Constructs
(A) Lipid kinase activity of the p110β/p85β-nic, p110β/p85β-ni and p110β/p85β-ic, p110β C-terminal truncation/p85β-nic (ΔCter) and kinase dead (D913N) constructs as determined by mass spectroscopy. Error bars in panel A and other panels indicate SEM of four replicates.
(1 picture or pasted object on this page, not shown here)
Vesicles were "brain lipids" as in Figure S2. The protein concentration was 10 nM with 100 μM ATP and 1 mg/ml lipid. Reactions were carried out for 60 min. The bars show the integrated areas for the stearoyl-arachidonyl PtdIns(3,4,5)P3 peak.
(B) ATPase activity (no lipid substrate) of the wild-type and kinase dead p110β/p85β-nic construct in the absence and presence of 10 μM PDGF bis-phosphopeptide. Protein concentration was 75 nM with 100 μM ATP. Shaded bars represent activity for reactions with 5 μM added PI3K inhibitor GDC0941.
(C) Lipid kinase activity of a p110β/p85-icSH2 complex in which p110β Kα7/Kα8 elbow (966-KTGN) was replaced by the elbow of p110α (968-AQECTK). […]
The PIP3 lipids produced in PI3K in vitro assays as described above were also measured by a mass-spectrometry based assay (Clark et al.). […]

B1: p110β-ΔCter/nic: truncation mutant lacking 17 residues from the p110β C terminus; human ΔCter (1-1053) used in cells (protein, UniProt P42338 1-1053, looked up, fragment)
chain: MCFSFIMPPAMADILDIWAVDSQIASDGSIPVDFLLPTGIYIQLEVPREATISYIKQMLWKQVHNYPMFNLLMDIDSYMFACVNQTAVYEELEDETRRLCDVRPFLPVLKLVTRSCDPGEKLDSKIGVLIGKGLHEFDSLKDPEVNEFRRKMRKFSEEKILSLVGLSWMDWLKQTYPPEHEPSIPENLEDKLYGGKLIVAVHFENCQDVFSFQVSPNMNPIKVNELAIQKRLTIHGKEDEVSPYDYVLQVSGRVEYVFGDHPLIQFQYIRNCVMNRALPHFILVECCKIKKMYEQEMIAIEAAINRNSSNLPLPLPPKKTRIISHVWENNNPFQIVLVKGNKLNTEETVKVHVRAGLFHGTELLCKTIVSSEVSGKNDHIWNEPLEFDINICDLPRMARLCFAVYAVLDKVKTKKSTKTINPSKYQTIRKAGKVHYPVAWVNTMVFDFKGQLRTGDIILHSWSSFPDELEEMLNPMGTVQTNPYTENATALHVKFPENKKQPYYYPPFDKIIEKAAEIASSDSANVSSRGGKKFLPVLKEILDRDPLSQLCENEMDLIWTLRQDCREIFPQSLPKLLLSIKWNKLEDVAQLQALLQIWPKLPPREALELLDFNYPDQYVREYAVGCLRQMSDEELSQYLLQLVQVLKYEPFLDCALSRFLLERALGNRRIGQFLFWHLRSEVHIPAVSVQFGVILEAYCRGSVGHMKVLSKQVEALNKLKTLNSLIKLNAVKLNRAKGKEAMHTCLKQSAYREALSDLQSPLNPCVILSELYVEKCKYMDSKMKPLWLVYNNKVFGEDSVGVIFKNGDDLRQDMLTLQMLRLMDLLWKEAGLDLRMLPYGCLATGDRSGLIEVVSTSETIADIQLNSSNVAAAAAFNKDALLNWLKEYNSGDDLDRAIEEFTLSCAGYCVASYVLGIGDRHSDNIMVKKTGQLFHIDFGHILGNFKSKFGIKRERVPFILTYDFIHVIQQGKTGNTEKFGRFRQCCEDAYLILRRHGNLFITLFALMLTAGLPELTSVKDIQYLKDSLALGKSEEEALKQFKQKFDEALRESW
  activity with brain lipids: no measurable activity
